How the values were obtained:
[1] = target: SHP2-C SH2; assay: SH2 binding enrichment of the phosphorylated peptide, bacterial display (enrichment ratio); higher = better substrate or ligand; peptides without Tyr show the background
[2] = target: c-Src SH2; assay: as above
[3] = target: Grb2 SH2 (UniProt P62993); assay: as above
[4] = system: c-Src; assay: phosphorylation enrichment, bacterial display (enrichment ratio); higher = better substrate or ligand; peptides without Tyr show the background
[5] = target: FGFR3 (UniProt P22607); assay: as above
[6] = target: EPHB1 (UniProt P54762); assay: as above
[7] = target: Jak2 (UniProt O60674); assay: as above
Sequence of Jak2 (O60674 whole entry, looked up): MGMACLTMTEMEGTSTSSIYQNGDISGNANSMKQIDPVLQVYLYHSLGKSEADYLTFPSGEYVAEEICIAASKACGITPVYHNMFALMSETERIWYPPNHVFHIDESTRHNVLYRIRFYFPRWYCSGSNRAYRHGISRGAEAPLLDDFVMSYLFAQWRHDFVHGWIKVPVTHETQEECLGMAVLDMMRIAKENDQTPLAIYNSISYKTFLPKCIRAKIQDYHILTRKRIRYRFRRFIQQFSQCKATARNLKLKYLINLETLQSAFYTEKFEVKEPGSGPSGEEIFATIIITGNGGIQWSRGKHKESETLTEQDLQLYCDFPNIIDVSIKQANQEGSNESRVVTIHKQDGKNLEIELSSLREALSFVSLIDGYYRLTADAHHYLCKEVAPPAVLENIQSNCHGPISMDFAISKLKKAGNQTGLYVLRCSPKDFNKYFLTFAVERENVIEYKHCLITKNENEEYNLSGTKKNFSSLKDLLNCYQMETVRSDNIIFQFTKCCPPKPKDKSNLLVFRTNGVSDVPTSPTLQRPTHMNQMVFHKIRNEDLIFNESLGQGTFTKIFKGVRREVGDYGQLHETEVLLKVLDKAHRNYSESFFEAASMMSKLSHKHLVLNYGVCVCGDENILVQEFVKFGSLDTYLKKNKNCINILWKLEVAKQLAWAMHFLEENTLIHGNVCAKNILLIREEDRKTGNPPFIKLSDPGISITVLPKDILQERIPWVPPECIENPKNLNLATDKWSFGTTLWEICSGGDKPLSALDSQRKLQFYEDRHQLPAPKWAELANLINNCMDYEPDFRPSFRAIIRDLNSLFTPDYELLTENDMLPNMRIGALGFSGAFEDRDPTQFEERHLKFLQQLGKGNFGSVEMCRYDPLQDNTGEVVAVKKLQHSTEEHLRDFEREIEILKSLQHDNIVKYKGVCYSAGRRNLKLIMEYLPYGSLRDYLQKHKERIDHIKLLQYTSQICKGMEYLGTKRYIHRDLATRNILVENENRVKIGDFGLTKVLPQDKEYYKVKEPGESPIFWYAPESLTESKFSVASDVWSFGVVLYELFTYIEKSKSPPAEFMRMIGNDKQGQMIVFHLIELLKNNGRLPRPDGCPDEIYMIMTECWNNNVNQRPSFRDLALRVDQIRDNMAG

[8] = system: Fer (mouse); assay: as above
[9] = target: Fes (UniProt P07332); assay: as above
[10] = system: AncSZ; assay: as above
[11] = system: c-Abl (mouse); assay: as above
[12] = target: MERTK (UniProt Q12866); assay: as above
Sequence of MERTK (Q12866 whole entry, looked up): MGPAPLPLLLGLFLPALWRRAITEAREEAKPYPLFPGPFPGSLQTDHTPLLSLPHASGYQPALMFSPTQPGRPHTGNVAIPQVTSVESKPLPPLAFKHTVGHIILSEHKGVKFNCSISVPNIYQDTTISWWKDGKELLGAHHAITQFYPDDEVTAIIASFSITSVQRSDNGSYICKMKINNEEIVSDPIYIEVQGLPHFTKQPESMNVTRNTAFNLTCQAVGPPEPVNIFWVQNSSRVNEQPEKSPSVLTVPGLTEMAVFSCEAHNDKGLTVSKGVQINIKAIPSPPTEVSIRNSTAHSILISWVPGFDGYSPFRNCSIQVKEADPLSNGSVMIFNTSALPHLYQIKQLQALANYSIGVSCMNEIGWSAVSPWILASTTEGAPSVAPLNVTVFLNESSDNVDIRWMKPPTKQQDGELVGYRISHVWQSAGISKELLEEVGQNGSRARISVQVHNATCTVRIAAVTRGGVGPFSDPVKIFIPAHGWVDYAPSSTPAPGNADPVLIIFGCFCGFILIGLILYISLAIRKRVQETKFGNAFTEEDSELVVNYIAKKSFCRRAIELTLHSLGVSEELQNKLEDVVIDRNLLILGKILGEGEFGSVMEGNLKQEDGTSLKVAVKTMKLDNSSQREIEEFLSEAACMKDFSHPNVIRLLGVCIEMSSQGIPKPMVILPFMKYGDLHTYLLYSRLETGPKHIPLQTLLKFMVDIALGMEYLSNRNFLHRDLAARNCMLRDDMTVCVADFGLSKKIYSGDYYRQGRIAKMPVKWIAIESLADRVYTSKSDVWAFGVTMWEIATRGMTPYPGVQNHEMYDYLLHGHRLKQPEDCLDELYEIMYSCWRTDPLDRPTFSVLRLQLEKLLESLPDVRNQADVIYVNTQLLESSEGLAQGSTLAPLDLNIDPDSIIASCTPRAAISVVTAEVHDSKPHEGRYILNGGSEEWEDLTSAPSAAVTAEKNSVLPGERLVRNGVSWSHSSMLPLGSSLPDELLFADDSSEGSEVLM

[13] = target: FGFR1 (UniProt P11362); assay: as above
Sequence of FGFR1 (P11362 whole entry, looked up): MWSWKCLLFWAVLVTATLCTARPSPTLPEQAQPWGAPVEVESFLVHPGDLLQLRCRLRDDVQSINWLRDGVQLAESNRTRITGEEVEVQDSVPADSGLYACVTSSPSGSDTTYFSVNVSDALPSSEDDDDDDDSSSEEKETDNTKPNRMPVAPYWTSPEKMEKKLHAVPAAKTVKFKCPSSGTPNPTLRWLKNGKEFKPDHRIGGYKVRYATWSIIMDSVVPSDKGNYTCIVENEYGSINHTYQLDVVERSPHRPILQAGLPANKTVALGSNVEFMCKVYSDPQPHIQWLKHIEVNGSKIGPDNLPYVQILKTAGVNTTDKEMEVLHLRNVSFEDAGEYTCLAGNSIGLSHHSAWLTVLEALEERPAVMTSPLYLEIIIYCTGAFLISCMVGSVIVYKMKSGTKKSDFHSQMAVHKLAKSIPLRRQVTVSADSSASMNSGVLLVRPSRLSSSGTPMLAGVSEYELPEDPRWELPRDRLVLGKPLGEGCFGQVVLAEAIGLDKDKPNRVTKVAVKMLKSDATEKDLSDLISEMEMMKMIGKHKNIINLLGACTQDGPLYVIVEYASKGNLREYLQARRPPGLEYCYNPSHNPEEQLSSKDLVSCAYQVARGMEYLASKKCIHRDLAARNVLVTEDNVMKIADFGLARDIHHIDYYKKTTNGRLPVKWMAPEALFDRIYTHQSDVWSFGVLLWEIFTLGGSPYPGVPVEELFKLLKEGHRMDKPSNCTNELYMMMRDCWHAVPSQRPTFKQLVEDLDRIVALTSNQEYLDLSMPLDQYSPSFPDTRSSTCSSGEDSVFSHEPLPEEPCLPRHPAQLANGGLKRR

[14] = target: EPHB2 (UniProt P29323); assay: as above
Sequence of EPHB2 (P29323 whole entry, looked up): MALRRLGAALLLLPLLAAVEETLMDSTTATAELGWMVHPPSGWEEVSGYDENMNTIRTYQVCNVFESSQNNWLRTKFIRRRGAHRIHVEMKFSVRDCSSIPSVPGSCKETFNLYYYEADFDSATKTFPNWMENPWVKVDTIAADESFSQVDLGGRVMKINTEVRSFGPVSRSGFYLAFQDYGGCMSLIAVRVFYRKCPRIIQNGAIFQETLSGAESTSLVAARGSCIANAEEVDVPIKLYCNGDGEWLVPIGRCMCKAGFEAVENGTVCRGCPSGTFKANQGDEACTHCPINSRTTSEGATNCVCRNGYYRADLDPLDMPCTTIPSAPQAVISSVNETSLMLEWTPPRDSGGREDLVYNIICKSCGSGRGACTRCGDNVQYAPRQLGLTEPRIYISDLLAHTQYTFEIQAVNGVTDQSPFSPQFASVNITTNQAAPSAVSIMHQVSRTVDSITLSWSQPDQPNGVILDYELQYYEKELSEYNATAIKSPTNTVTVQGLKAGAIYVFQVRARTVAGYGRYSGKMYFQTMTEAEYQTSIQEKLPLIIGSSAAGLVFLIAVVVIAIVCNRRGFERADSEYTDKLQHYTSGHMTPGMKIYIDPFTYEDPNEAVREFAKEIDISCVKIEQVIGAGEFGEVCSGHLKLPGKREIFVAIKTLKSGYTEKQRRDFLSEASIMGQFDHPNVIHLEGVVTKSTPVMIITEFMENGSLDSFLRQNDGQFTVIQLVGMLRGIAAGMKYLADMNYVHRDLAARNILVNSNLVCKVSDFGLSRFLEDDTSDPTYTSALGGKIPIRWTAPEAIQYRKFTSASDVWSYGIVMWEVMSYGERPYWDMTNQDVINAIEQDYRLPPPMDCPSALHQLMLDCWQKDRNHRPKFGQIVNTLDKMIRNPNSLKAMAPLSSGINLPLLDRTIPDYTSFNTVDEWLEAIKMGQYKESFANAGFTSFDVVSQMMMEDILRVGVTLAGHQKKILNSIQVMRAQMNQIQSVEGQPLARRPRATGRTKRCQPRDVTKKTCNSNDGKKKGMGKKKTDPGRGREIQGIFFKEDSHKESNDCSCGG

[15] = target: Fyn (UniProt P06241); assay: as above
Sequence of Fyn (P06241 whole entry, looked up): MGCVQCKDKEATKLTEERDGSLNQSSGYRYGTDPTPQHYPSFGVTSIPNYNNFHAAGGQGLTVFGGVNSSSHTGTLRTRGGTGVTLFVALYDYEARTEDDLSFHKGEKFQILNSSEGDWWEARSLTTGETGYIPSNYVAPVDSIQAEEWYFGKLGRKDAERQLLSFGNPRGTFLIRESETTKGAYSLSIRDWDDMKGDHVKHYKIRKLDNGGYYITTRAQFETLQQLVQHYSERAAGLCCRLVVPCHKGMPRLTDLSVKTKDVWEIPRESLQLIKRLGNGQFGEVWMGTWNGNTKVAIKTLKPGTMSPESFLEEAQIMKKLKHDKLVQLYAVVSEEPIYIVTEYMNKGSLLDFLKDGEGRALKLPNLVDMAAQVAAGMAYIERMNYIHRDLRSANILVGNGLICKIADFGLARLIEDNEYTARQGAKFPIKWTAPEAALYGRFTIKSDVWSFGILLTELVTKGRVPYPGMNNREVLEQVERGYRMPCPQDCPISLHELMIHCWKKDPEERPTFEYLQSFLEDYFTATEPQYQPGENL

[16] = target: Hck (UniProt P08631); assay: as above
Sequence of Hck (P08631 whole entry, looked up, the tested form may be a part): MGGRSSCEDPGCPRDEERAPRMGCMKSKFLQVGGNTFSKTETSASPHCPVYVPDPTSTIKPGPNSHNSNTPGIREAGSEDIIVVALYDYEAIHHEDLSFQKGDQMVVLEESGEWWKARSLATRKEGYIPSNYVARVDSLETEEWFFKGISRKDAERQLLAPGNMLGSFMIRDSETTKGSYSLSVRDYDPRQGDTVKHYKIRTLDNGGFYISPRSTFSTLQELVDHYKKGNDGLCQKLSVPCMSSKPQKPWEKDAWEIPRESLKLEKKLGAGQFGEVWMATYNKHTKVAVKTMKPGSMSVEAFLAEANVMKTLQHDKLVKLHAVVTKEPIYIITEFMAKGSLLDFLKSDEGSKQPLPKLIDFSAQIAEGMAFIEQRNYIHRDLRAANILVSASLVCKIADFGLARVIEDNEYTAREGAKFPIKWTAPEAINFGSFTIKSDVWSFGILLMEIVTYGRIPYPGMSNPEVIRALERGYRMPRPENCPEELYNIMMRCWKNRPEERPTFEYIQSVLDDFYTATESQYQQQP
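Throughout, for SH2 binding enrichment of the phosphorylated peptide, bacterial display: peptide library displayed on the E. coli surface as eCPX fusions, selected cells deep-sequenced, score is each peptide's frequency after selection divided by its frequency in the input.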
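Throughout, for phosphorylation enrichment, bacterial display: 11-residue human phosphosite peptides and single-mutation variants displayed on the E. coli surface, counted by deep sequencing, each peptide's frequency after selection divided by its frequency in the unselected input library; frequency after pTyr selection over input frequency; kinase dosed for 20-30% of maximal phosphorylation in three min.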

With KSMSVYCTPNK [ATP2A2_Y497] the SH2 binding enrichment [1] was 0.686, the SH2 binding enrichment [2] was 0.948 and the SH2 binding enrichment [3] was 1.08. The phosphorylation enrichment [4] was 0.455, the phosphorylation enrichment [5] was 0.632 and the phosphorylation enrichment [6] was 0.696. The phosphorylation enrichment [7] was 0.581, the phosphorylation enrichment [8] was 0.509 and the phosphorylation enrichment [9] was 0.94. It also gave a phosphorylation enrichment [10] of 1.13, a phosphorylation enrichment [11] of 1.38 and a phosphorylation enrichment [12] of 0.653. The phosphorylation enrichment [13] was 0.473, the phosphorylation enrichment [14] was 0.702 and the phosphorylation enrichment [15] was 0.699. The phosphorylation enrichment [16] was 1.
ESMLRYDVYGG [STOX1_Y607_E608D] gave an SH2 binding enrichment [1] of 0.62, an SH2 binding enrichment [2] of 0.723 and an SH2 binding enrichment [3] of 0.996. It also gave a phosphorylation enrichment [4] of 1.29, a phosphorylation enrichment [5] of 0.705 and a phosphorylation enrichment [6] of 0.646. For the same sequence, the phosphorylation enrichment [7] was 0.704, the phosphorylation enrichment [8] was 0.462 and the phosphorylation enrichment [9] was 0.972. It also gave a phosphorylation enrichment [10] of 0.96, a phosphorylation enrichment [11] of 0.529 and a phosphorylation enrichment [12] of 0.918. It also gave a phosphorylation enrichment [13] of 0.482, a phosphorylation enrichment [14] of 1.08 and a phosphorylation enrichment [15] of 1.04. The phosphorylation enrichment [16] was 1.3.
Sequence VGTKRYMAPEV [ACVRL1_Y375] has an SH2 binding enrichment [1] of 0.616, an SH2 binding enrichment [2] of 0.511 and an SH2 binding enrichment [3] of 0.804. For the same sequence, the phosphorylation enrichment [4] was 0.373, the phosphorylation enrichment [5] was 0.446 and the phosphorylation enrichment [6] was 0.351. For the same sequence, the phosphorylation enrichment [7] was 0.637, the phosphorylation enrichment [8] was 0.395 and the phosphorylation enrichment [9] was 0.61. For the same sequence, the phosphorylation enrichment [10] was 0.611, the phosphorylation enrichment [11] was 0.532 and the phosphorylation enrichment [12] was 0.389. It also gave a phosphorylation enrichment [13] of 0.413, a phosphorylation enrichment [14] of 0.428 and a phosphorylation enrichment [15] of 0.361. The phosphorylation enrichment [16] was 0.407.
In the case of LENSTYQYICV [CRB1_Y760_R764C], the SH2 binding enrichment [1] is reported as 0.526, the SH2 binding enrichment [2] is reported as 0.522 and the SH2 binding enrichment [3] is reported as 0.715. It also gave a phosphorylation enrichment [4] of 3.5, a phosphorylation enrichment [5] of 8.35 and a phosphorylation enrichment [6] of 11.9. For the same sequence, the phosphorylation enrichment [7] was 2.13, the phosphorylation enrichment [8] was 15.4 and the phosphorylation enrichment [9] was 2.41. It also gave a phosphorylation enrichment [10] of 3.88, a phosphorylation enrichment [11] of 1.61 and a phosphorylation enrichment [12] of 6.83. It also gave a phosphorylation enrichment [13] of 14.1, a phosphorylation enrichment [14] of 8.2 and a phosphorylation enrichment [15] of 4.96. It also gave a phosphorylation enrichment [16] of 5.89.
KLPDAYERLIL [G6PD_Y437] gave an SH2 binding enrichment [1] of 0.723, an SH2 binding enrichment [2] of 2.48 and an SH2 binding enrichment [3] of 0.949. The phosphorylation enrichment [4] was 0.542, the phosphorylation enrichment [5] was 0.561 and the phosphorylation enrichment [6] was 0.545. It also gave a phosphorylation enrichment [7] of 0.591, a phosphorylation enrichment [8] of 0.634 and a phosphorylation enrichment [9] of 0.944. It also gave a phosphorylation enrichment [10] of 0.756, a phosphorylation enrichment [11] of 0.796 and a phosphorylation enrichment [12] of 0.522. For the same sequence, the phosphorylation enrichment [13] was 0.992, the phosphorylation enrichment [14] was 0.49 and the phosphorylation enrichment [15] was 0.491. It also gave a phosphorylation enrichment [16] of 0.582.
With RGERPYGGGGG [FUS_Y526_R522G] the SH2 binding enrichment [1] was 0.673, the SH2 binding enrichment [2] was 0.661 and the SH2 binding enrichment [3] was 1.24. For the same sequence, the phosphorylation enrichment [4] was 0.415, the phosphorylation enrichment [5] was 0.377 and the phosphorylation enrichment [6] was 0.185. For the same sequence, the phosphorylation enrichment [7] was 0.65, the phosphorylation enrichment [8] was 0.337 and the phosphorylation enrichment [9] was 0.643. For the same sequence, the phosphorylation enrichment [10] was 0.487, the phosphorylation enrichment [11] was 0.397 and the phosphorylation enrichment [12] was 0.48. The phosphorylation enrichment [13] was 0.419, the phosphorylation enrichment [14] was 0.418 and the phosphorylation enrichment [15] was 0.474. The phosphorylation enrichment [16] was 0.444.
SLLKDYSPQLQ [OTC_Y345_T343K] gave an SH2 binding enrichment [1] of 0.604, an SH2 binding enrichment [2] of 0.463 and an SH2 binding enrichment [3] of 0.884. It also gave a phosphorylation enrichment [4] of 0.469, a phosphorylation enrichment [5] of 0.999 and a phosphorylation enrichment [6] of 0.554. The phosphorylation enrichment [7] was 0.624, the phosphorylation enrichment [8] was 0.489 and the phosphorylation enrichment [9] was 0.806. It also gave a phosphorylation enrichment [10] of 0.703, a phosphorylation enrichment [11] of 0.59 and a phosphorylation enrichment [12] of 0.443. For the same sequence, the phosphorylation enrichment [13] was 0.495, the phosphorylation enrichment [14] was 0.525 and the phosphorylation enrichment [15] was 0.6. For the same sequence, the phosphorylation enrichment [16] was 0.504.
ASSPVYVPTTR [GATA6_Y188] showed an SH2 binding enrichment [1] of 0.71, an SH2 binding enrichment [2] of 0.433 and an SH2 binding enrichment [3] of 0.876. The phosphorylation enrichment [4] was 0.51, the phosphorylation enrichment [5] was 0.428 and the phosphorylation enrichment [6] was 0.397. For the same sequence, the phosphorylation enrichment [7] was 0.44, the phosphorylation enrichment [8] was 0.406 and the phosphorylation enrichment [9] was 0.539. For the same sequence, the phosphorylation enrichment [10] was 0.525, the phosphorylation enrichment [11] was 0.524 and the phosphorylation enrichment [12] was 0.493. For the same sequence, the phosphorylation enrichment [13] was 0.323, the phosphorylation enrichment [14] was 0.479 and the phosphorylation enrichment [15] was 0.429. For the same sequence, the phosphorylation enrichment [16] was 0.646.
In the case of VGTKRYMALEV [ACVRL1_Y375_P378L], the SH2 binding enrichment [1] is reported as 0.805, the SH2 binding enrichment [2] is reported as 0.813 and the SH2 binding enrichment [3] is reported as 0.977. For the same sequence, the phosphorylation enrichment [4] was 0.486, the phosphorylation enrichment [5] was 0.541 and the phosphorylation enrichment [6] was 0.549. It also gave a phosphorylation enrichment [7] of 0.557, a phosphorylation enrichment [8] of 0.418 and a phosphorylation enrichment [9] of 0.75. It also gave a phosphorylation enrichment [10] of 0.691, a phosphorylation enrichment [11] of 0.709 and a phosphorylation enrichment [12] of 0.448. For the same sequence, the phosphorylation enrichment [13] was 0.472, the phosphorylation enrichment [14] was 0.451 and the phosphorylation enrichment [15] was 0.429. It also gave a phosphorylation enrichment [16] of 0.458.

From the supplement of paper PMC10065799, “High-throughput profiling of sequence recognition by tyrosine kinases and SH2 domains using bacterial peptide display” (eLife, 2023)
